In publication PMC6375885, “Specific Inhibition of Soluble γc Receptor Attenuates Collagen-Induced Arthritis by Modulating the Inflammatory T Cell Responses” (Frontiers in Immunology, 2019):

Biological target: the molecule itself
Assay: immunoprecipitation, non-reducing SDS-PAGE and immunoblot; culture supernatant of transfected HEK293T cells precipitated with α-mouse IL-2Rγ antibody and protein A/G agarose; resolved under non-reducing conditions (DTT-); blotted with biotinylated α-mouse IL-2Rγ antibody; dimer and monomer bands

B1: soluble common gamma chain (sγc), wild type (natural protein)
chain: WSSKVLMSSANEDIKADLILTSTAPEHLSAPTLPLPEVQCFVFNIEYMNCTWNSSSEPQATNLTLHYRYKVSDNNTFQECSHYLFSKEITSGCQIQKEDIQLYQTFVVQLQDPQKPQRRAVQKLNLQNLVIPRAPENLTLSNLSESQLELRWKSRHIKERCLQYLVQYRSNRDRSWTELIVNHEPRFSLPSVDELKRYTFRVRSRYNPICGSSQQWSKWSQPVHWGSHTVEECLQFPPSRI
notes: signal peptide in the construct; common gamma chain (γc, IL-2Rγ), the part before the new C-terminal 9 a.a. of the alternatively spliced soluble form; not part of the membrane form of γc; Secreted; found as a disulfide-linked dimer and as a monomer in the supernatant; The reverse primer has no stop codon, so a C-terminal tag from the vector may follow (surmise; also called WT sγc; soluble γc; …)
  stoichiometry N: 2
